Source: the nanobody polyreactivity screen of Harvey et al. (2022)

experiment: yeast display, Sf9 membrane polyspecificity reagent, FACS + sequencing; frameworks hold sequencing errors
Procedure, shortened: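 After 36–48 hours of galactose induction, yeast (Saccharomyces cerevisiae BJ5465) displaying a synthetic nanobody library were stained at 4 °C for 1 hour with 10% biotinylated, detergent-solubilized Sf9 membrane reagent. Streptavidin microbeads enriched the stained cells before FACS sorting into low and high (top ~1%) gates on anti-HA and streptavidin fluorescence. Each clone's polyreactivity label reflects its gate of origin.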

Sequence | polyreactivity (PSR sort gate)
QVLLVESGGGLVQAGGSLRLSCAASGSIFGAYAMGWYRQAPGKVRELVAAINYGGATTYYADSVKGRYTISRDLAKNTVYLQMNSLKPQDTAVYYCAADNDTDHSSATYGYDYWGQGTQVTVSS | low polyreactivity
QVLLVESGGGLVQAGGSLRLSCAASGSIFGYKDMGWYRQAPGKERELVASITRGGGRTRYADSVKGRFTISRDNAKNTVYLQMNSLKPEDTAVYYCAADKLSYSYVRPPRNHEDYWGQGTQVTVSS | low polyreactivity
QVLLVESGGGLVQAGGSLRLSCAASGSTIRYYAMGWYRQAPGKERELVAAISWRGGSTYYADSVKGRFTISRDNAKYTVYLQMNSLKPEDTAVYYCAVEAVAYGFFHYDYWGQGTQVTVSS | high polyreactivity
QVLLVESGGGLVQAGGSLRLSCSASGNAMGWYRQAPGKERELVAAITRRGGSTYYADSVKGSFTISRDNAKNTVYLQMNSLKPEDTAVYYCADDNPSYNLWYGYWGQGTQVTVSS | low polyreactivity
QVLLVESGGGLVQAGGSLRLSGAASGRTFRRNAIGWYRQAPGKERELVAAISASGGSTYYADSVKGRFTISRDNAMNTVYLEMNSLKPEDTADYYCAAVSQTTYWGQGTQVTVSS | high polyreactivity
QVLLVESGGGLVQAGGSLRVSCAASGFTFYGYAMGWYRQAPGKERELVAARSSTGGRTYYADSVKGRFTISRDNAKNTVYLQMNSLKPEDTAVYYCNKVWRFAEHNYWGQGTQVTVSS | high polyreactivity
QVLLVESGGGLVQAGGSLRVSCAASGSTFPYYAMGWYRQAPGKERELVAAITSSASTYYADSVKGRFTISRDNAKNTVYLQMNSLKPEDTAVYYCAVRTPYRLSRWRVGYWGQGTQVTVSS | high polyreactivity
QVLLVESGGGLVQAGGSLSLSCAASGLIFVNAMGWYRQAPGKEREFVAAITYSTGSTYYADSVKGRFTISRDNAKNTVYLQMNSLKPEDTAFYYCAKDRSGHGTERDDWGQGTQVTVSS | low polyreactivity
QVLLVESGGGLVQAGGSLSLSCAASGRTFFNNAMGWYRQAPGQEREFVAAISRSGSSTYYAVSVKGRFTISRDNAKNTVYLQMNSLKPEHTAVYYCASYLYYYSAYGYWGQGTQVTVSS | high polyreactivity
QVNLVESGGGLVQAGCSLRITCADSGRTFKHNAMGWYRQAPGKERQLVAAISRRGGSTYFADSVKGRFTISRDNAKNTVYLQMNRLKPDDTAVYYCNAGYSTFLQYYGEVWKKGCYWGQGTQVTVSS | high polyreactivity
QVPLVESGGGLLQAGGSLRLSCSASGYTFSKYAMGWYRQAPGKERELVAAISFSGGSTYYADSVKGRFTISRDNAKNTVYLLMNSLKPEDTAVYYCDKYTITNYDYWGQGTLVTVSS | low polyreactivity
QVPLVESGGGLVQAGGSLRIRCAASGSIFAGNALGWYRQAPGKEWELVAAIARRGGSTYYADSVKGRFTISRDNAKNTVYLQMNSLKPEDTAVYYCNDLLRYAYHAAFGYWGQATQVTVSS | high polyreactivity
QVPLVESGGGLVQAGGSLRISCAASGSILQYYALGWYRQAPGKERELVASISSSSGSTYYADSVKGRFTISRDNAKNTVYLQMNSLKPEDTAVYYCNARGWTLAADFGYWGQATQVTVSS | low polyreactivity
QVPLVESGGGLVQAGGSLRISCAASGSTIVGYSMGWYRQAHGKERELVADITSGGGITYYADSVKGRFTISRDNAKNTVYLQMNSLKPEYSAVYYCAARVVEIFHWAGDYWGQGTQVTVSS | low polyreactivity
QVPLVESGGGLVQAGGSLRLSCAASGFIFSSNARGWYRQAPGKERELVARITWSDGSTYYADSVKGRFTISRDNAKKTVYLQMNSLKPEDTAVYYCAKGRDATHYEYYLYSMDYWGQGTQVTVSS | low polyreactivity
QVPLVESGGGLVQAGGSLRLSCAASGGIFRLYAMGWYRLAPGKEREVVASLSGDGDSTYYADSVQGRFTISRDNAKNTVYLQMNSLKPEDTAVYYCARQPYYFLSRPPYFRKYYYWGQGTQVTVSS | high polyreactivity
QVPLVESGGGLVQAGGSLRLSCAASGHTFRFYTMGWYRQAPGKEREFVAAIRRRTGSTYYADSVKGRFTISRDNAKNTVYLQMNSLKPEDTAVYYCAAESRYYYRFYYGYHYDYWGQGTQVTVSS | high polyreactivity
QVPLVESGGGLVQAGGSLRLSCAASGITFYYYTMGWYIQAPGKERELVAGITRGGRRYDADSVKGRFTISRDNAKNPVYLQMNSLKPEDTAVYYCNADDDIQYKGRYNYWGQGTQVTVSS | low polyreactivity
QVPLVESGGGLVQAGGSLRLSCAASGRIFGTNTMGWYRQAPGKEREWVAAITWSGGSTYYADSGTGRFTISRDNAKNPVYLQMNSLNPEDTAGYYCNVESAYAYHGPVDYWGQGTQVTVSS | low polyreactivity
QVPLVESGGGLVQAGGSLRLSCAASGRIFLRYDIGWYRKAPGKERELVAAIPRSGGSTYYADSVKGRFTISRDNAKNTVYLQMNSLKPEDTAVYYCAARRWGRVYTTYTGGYWGQGTQVTVSS | high polyreactivity
QVPLVESGGGLVQAGGSLRLSCAASGRIFYFNDMGWYRQAPGKERELVAAISRSGGSTYYADSVKGRFTISRDNAKNTVYLQMNSLKPEDTAVYYCAAGRDTWPSTYYYWGQGTQVTVSS | low polyreactivity
QVPLVESGGGLVQAGGSLRLSCAASGSTFTRYAMGWYRQAPGKEREFVAGISSRGSRTYYADSVKGRFTISRDNAKNTVYLQMNSLKPEDTAVYYCAVSGNHVSPPYGYWGQGTQLTVSS | high polyreactivity

Sequence | polyreactivity (PSR sort gate)
QVPLVESGGGLVQAGGSLRLSCAASGSTFVRYAMGWYRQAPGKERELVAGISRVGNTYYADSVKGRFTISRDNAKNTVYLQMNSLKPEDTAVYYCARSQAVYDGWFAKFGYWGQGTQVTVSS | high polyreactivity
QVPLVESGGGLVQAGGSLRLSCAASGSTLGRYAMGWYRQAPGKERELVASITWSDDSTYYADSEKGRFTISRDNAKNTVYLQMNSLKPEDTAVYYCAAAGNLYTYRFYYWGQGTQVTLSS | low polyreactivity
QVPLVESGGGLVQAGGSLRLSCAASGSTLTSNAMGWYRQAPGKERELVAAIRSGGSTNYADSVKGRFTISRDNAKNTVYLQMNSLKPEDTAVYYCNTDFLWQGYGYSRVSYDYWGQGTQVTVSS | low polyreactivity
QVPLVESGGGLVQAGGSLRLSCAASGSTLWVYAMGWSRQAPGKERELVAAITQSTGDTHYADSVKGRFTISRDNAKNTVYLQMNSLKPEDTAVYYCAADSYLSVYDPYGDWGQGTQVTVSS | low polyreactivity
QVPLVESGGGLVQAGGSLSLSCAASGNIFPSYVMGWYSQAPGKERELVAAITGNGGSTYYADSVKGRFTISRDNAKNTVYLQMNSLTAEDTEVYYCATSAPRLLRYDSSSSPSYDNWGQGTKVTVSS | low polyreactivity
QVPLVESVGGLVQAGGSLRISCAASGGIFRYYAMGRYRQAPGNERELVAAITSSGTSTYYADSVKGRFTISRDNAKNTVYLQMNSLKPEDTAVYYCAAETYYSIYDYWGQGTQVTVSS | high polyreactivity
QVPVVASGGGFVQAGGRLRLSCAASGRTFFYNAMGWYRQAPGKERESTYYADSVKGRFTISRDNAKNTVYLQMNSLKPEDTAVYYFAAATAYVAYEGDKGDYWGQGTQVTVSA | low polyreactivity
QVQFEESGGGLVQAGGSLRLSCAASGSTFQGYAMGWYRQAPGKERELVAAISRSGGRTYYADSVKGRFTISRDNAKNTVYLQMNSLKPEDTAVYYCAAEGHELTEGDSWGQGTQVTVSS | low polyreactivity
QVQFVESGGGLVQAGGSLRLSCAASGSIFALYAMGWYRQAPGKERELVAAISYRGGRTYYADSVKGRFTISRDNAKNTVYLQMNSLKPEDTAVYYCATDFPGKFDYWGQGTQVTVSS | low polyreactivity
QVQFVESGGGLVQAGGSLRLSCAASGSIFIYNAMGWYRQAPGTERELVAAISRGGTNTYYADSVKGRFTISRDNAKNTVYLQMNSLKPEDTAVYYCAARGGYIGSRNNYWGQGTQVTVSS | high polyreactivity
QVQHEDSGGGLVQAGGSHPLSCAASGSTFRVNAMGWYRQAPGKERELVAAISRRGGSTYYADSVKGRFTISRDNSKNTVYLQMNCLKPEDTAVYYCAAERLGTVQDDYWGQGTQVTVSS | high polyreactivity
QVQHEDSGGGLVQAGGSLRLSCAASGRIFLYYAMGWYRQAPGKERELVAAISSGTSTYYADSVKGRFTISRDNAKNTVYLQMNSLKPEDTAVYYCAAYYYSYPTNGGYGYWGQGTQVTVSS | low polyreactivity
QVQHEESGGGLVQAGGSLRISCAASGTTFFTYAMGWYRPAPGKEREFVAAISWSDDSTYYADSVKGRFTISRDYAKNTVYLQMNSLKPEDTAVYYCAAEWGQRGGGGYYYWGQGTQVTVSS | low polyreactivity
QVQHVASGGGLVQAGGSLRLSCAASGSTFVYYAMGWYRQAPGKERELFADITKSGGSTFYAESVKGRFTISRDNAKNTVYLQMNSLKPEDTAVFYCGARYKGQYYRQGRHDYWGQGSQVTVSS | high polyreactivity
QVQHVDSGGGLVQAGGSLRLSCAASGFIFSYYAMGWYRQAPVKERELVAGISYNGDRTYYADSVKGRFTISRDNAKNTFYLQMKSLKPEDTAVYYCNVVWVLGGWYDLEYDYWGQGTQVTVSS | high polyreactivity
QVQHVDSGGGLVQAGGSLRLSCAASGRILYSYAMGWYRQAPGKERELVAVITTRGGTYYADSVKGRFTISRDNAKNTVYLQMNSLKPEDTAVYYCNARRYPSYKYDYWGQGTQVTVSS | high polyreactivity
QVQHVESAGGLVQAGGSLPLRCAASGSTFSPNALGGYSHAHGKERELVARITRSGSRTSYADSLKGRFTISRDNAKNPVYFQMNSLKPEDTAVYYCAAEGPKQYDYWGQGTHVTVSS | low polyreactivity
QVQHVESAGGLVQAGGSLRLSCAASGRTFDYNAMGWYRQAPGKERELVAAISWRGGNTYYADSVKGRFTISRDNAKNTVYLQMNSLKPEDTAVYYCGAVYRYSTRNYGYWGQGTQVTVSS | high polyreactivity
QVQHVESAGGLVQAGGSLRLSCAASGSIFPYNAMGWYRQAPGKERELVAAISYSGSTTYYADSVKRRFTISRDNSKNTVYLQMNSLKPEDTAVYYCNTLSWYQYDYWGQGTQVTVSS | high polyreactivity
QVQHVESGGALVQAAGSLSLRCAASGSTFGYNAMGWYRQAPSKEMELVAVITDSGGSSYYADSVKGRFTISRDNPKNTVYVQMHSLNPEDTAVYYCAKFYGLVVSGHVILSGFEYWGQGTLVTVSS | low polyreactivity
QVQHVESGGALVQAGGSLRLSCAASGLIYALSAMGWDRQAPGKEMELVAAIDWSGGSTYYADSVKGRFTISRDNAKNTVYVQMNCLKPEDTAVYYCAADISSSPGNDYWGQGTQLTVSS | high polyreactivity
